From publication PMC6520838, “Structural Insights to the Heterotetrameric Interaction between the Vibrio parahaemolyticus PirA^vp and PirB^vp Toxins and Activation of the Cry-Like Pore-Forming Domain” (Toxins, 2019) come the findings set out here.

For orientation: Kd means a measure of binding affinity in units of concentration. The low end stands for higher affinity, the high end for lower affinity. As usually defined, the stoichiometry N is the number of molecules, sites or subunits per partner or assembly.

In assay [1] the target is T1, N-terminal tagged His10-PirA^vp (Vibrio parahaemolyticus).
T1 chain: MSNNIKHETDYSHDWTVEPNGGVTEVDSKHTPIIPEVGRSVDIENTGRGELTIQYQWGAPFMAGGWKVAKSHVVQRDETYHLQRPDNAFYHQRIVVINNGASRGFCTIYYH
Kind of assay: ITC; iTC200; 1100 uM PirB^vp in the syringe injected into 110 uM PirA^vp in the cell, 19 injections of 2 uL, 25 °C; 30 mM Tris pH 8.0, 100 mM NaCl, 5% glycerol, 1 mM DTT; triplicate. The note with it: both partners purified. On the technique in general: ITC needs no label: the signal is the heat of the interaction.

Assay [2] addresses T1, N-terminal tagged His10-PirA^vp. Kind of assay: SDS-PAGE densitometry of the complex collected from gel filtration; complex fractions eluted at 12.5 to 13 mL, serially diluted, SDS-PAGE; bands quantified with Image J against standard curves of PirA^vp and PirB^vp. The conditions noted are these: both partners purified.

B1: C-terminal tagged His6-PirB^vp (natural protein)
chain: MTNEYVVTMSSLTEFNPNNARKSYLFDNYEVDPNYAFKAMVSFGLSNIPYAGGFLSTLWNIFWPNTPNEPDIENIWEQLRDRIQDLVDESIIDAINGILDSKIKETRDKIQDINETIENFGYAAAKDDYIGLVTHYLIGLEENFKRELDGDEWLGYAILPLLATTVSLQITYMACGLDYKDEFGFTDSDVHKLTRNIDKLYDDVSSYITELAAWADNDSYNNANQDNVYDEVMGARSWCTVHGFEHMLIWQKIKELKKVDVFVHSNLISYSPAVGFPSGNFNYIATGTEDEIPQPLKPNMFGERRNRIVKIESWNSIEIHYYNRVGRLKLTYENGEVVELGKAHKYDEHYQSIELNGAYIKYVDVIANGPEAIDRIVFHFSDDRTFVVGENSGKPSVRLQLEGHFICGMLADQEGSDKVAAFSVAYELFHPDEFGTEK
For B1, in assay [1], the dissociation constant Kd came out at 7.33 ± 1.2 µM, the dH is -25.7 ± 1.42 kcal/mol and the “stoichiometry N” value was 0.74 ± 0.01. In addition, the “stoichiometry N” value in assay [2] was 1.1 PirA^vp per PirB^vp.
